Molecular target: T1, B7-H3 expressed on human cancer cell lines (786-O, BT-474, HCC1954) (human, UniProt Q5ZPR3 29-534)
T1 construct: The assay used B7-H3 expressed endogenously on the cell lines; also called CD276; cell expressed B7-H3
T1 sequence: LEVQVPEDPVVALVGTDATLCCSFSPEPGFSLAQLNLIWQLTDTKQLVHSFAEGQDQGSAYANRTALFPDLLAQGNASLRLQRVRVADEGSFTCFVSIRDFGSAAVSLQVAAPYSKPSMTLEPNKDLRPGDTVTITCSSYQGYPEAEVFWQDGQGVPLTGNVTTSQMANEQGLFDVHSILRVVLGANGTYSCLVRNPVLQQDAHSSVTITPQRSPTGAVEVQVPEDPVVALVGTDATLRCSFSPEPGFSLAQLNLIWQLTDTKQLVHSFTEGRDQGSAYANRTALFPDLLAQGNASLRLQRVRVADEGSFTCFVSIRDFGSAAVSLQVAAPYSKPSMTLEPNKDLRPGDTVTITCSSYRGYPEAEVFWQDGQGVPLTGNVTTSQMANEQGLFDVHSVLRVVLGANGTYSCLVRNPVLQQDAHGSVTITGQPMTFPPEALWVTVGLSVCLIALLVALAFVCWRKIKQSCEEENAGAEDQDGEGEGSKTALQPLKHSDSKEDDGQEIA
Test: flow cytometry on 786-O, BT-474 and HCC1954 cells, anti-human IgG detection
Method: Human cancer cell lines expressing B7-H3 were used to assess tumor antigen binding of TriNKETs derived from B7-H3 targeting clones. Human breast cancer cell lines BT-474 and HCC1954 and renal cancer cell line 786-O were used to assess binding of TriNKETs to cell expressed B7-H3. Varying concentrations of either TriNKET or monoclonal antibody were allowed to bind cells for 20 minutes on ice, after which cells were washed and the amount of bound TriNKET/monoclonal antibody was measured using fluorophore conjugated anti-human IgG secondary antibody. Cells were then analyzed by flow cytometry and binding MFI to cell expressed B7-H3 was plotted against varying concentration.

Binder | binding result
A49MI-F3′-TriNKET-huAb13v1 (bispecific antibody, human IgG1, kappa, also called TriNKET bearing 13v1 B7-H3 targeting domain; B7-H3 TriNKET) scFv: DIQMTQSPSSLSASVGDRVTITCKASQNVGFNVAWYQQKPGKSPKALIYSASYRYSGVPSRFSGSGSGTDFTLTISSLQPEDFAEYFCQQYNWYPFTFGCGTKLEIKGGGGSGGGGSGGGGSGGGGSEVQLQESGPGLVKPSETLSLTCAVTGYSITSGYSWHWIRQFPGNCLEWMGYIHSSGSTNYNPSLKSRISISRDTSKNQFFLKLSSVTAADTAVYYCAGYDDYFEYWGQGTTVTVSSASDKTHTCPPCPAPELLGGPSVFLFPPKPKDTLMISRTPEVTCVVVDVSHEDPEVKFNWYVDGVEVHNAKTKPREEQYNSTYRVVSVLTVLHQDWLNGKEYKCKVSNKALPAPIEKTISKAKGQPREPRVYTLPPCRDELTKNQVSLTCLVKGFYPSDIAVEWESNGQPENNYKTTPPVLVSDGSFTLYSKLTVDKSRWQQGNVFSCSVMHEALHNHYTQKSLSLSPG heavy: EVQLVESGGGLVKPGGSLRLSCAASGFTFSSYSMNWVRQAPGKGLEWVSSISSSSSYIYYADSVKGRFTISRDNAKNSLYLQMNSLRAEDTAVYYCARGAPIGAAAGWFDPWGQGTLVTVSSASTKGPSVFPLAPSSKSTSGGTAALGCLVKDYFPEPVTVSWNSGALTSGVHTFPAVLQSSGLYSLSSVVTVPSSSLGTQTYICNVNHKPSNTKVDKKVEPKSCDKTHTCPPCPAPELLGGPSVFLFPPKPKDTLMISRTPEVTCVVVDVSHEDPEVKFNWYVDGVEVHNAKTKPREEQYNSTYRVVSVLTVLHQDWLNGKEYKCKVSNKALPAPIEKTISKAKGQPREPQVCTLPPSRDELTENQVSLTCLVKGFYPSDIAVEWESNGQPENNYKTTPPVLDSDGSFFLYSWLTVDKSRWQQGNVFSCSVMHEALHNHYTQKSLSLSPG light: DIQMTQSPSSVSASVGDRVTITCRASQGISSWLAWYQQKPGKAPKLLIYAASSLQSGVPSRFSGSGSGTDFTLTISSLQPEDFATYYCQQGVSFPRTFGGGTKVEIKRTVAAPSVFIFPPSDEQLKSGTASVVCLLNNFYPREAKVQWKVDNALQSGNSQESVTEQDSKDSTYSLSSTLTLSKADYEKHKVYACEVTHQGLSSPVTKSFNRGEC | binds
A49MI-F3′-TriNKET-Enoblituzumab (bispecific antibody, human IgG1, kappa, also called TriNKET bearing Enoblituzumab B7-H3 targeting domain; B7-H3 TriNKET) scFv: DIQLTQSPSFLSASVGDRVTITCKASQNVDTNVAWYQQKPGKAPKALIYSASYRYSGVPSRFSGSGSGTDFTLTISSLQPEDFATYYCQQYNNYPFTFGCGTKLEIKGGGGSGGGGSGGGGSGGGGSEVQLVESGGGLVQPGGSLRLSCAASGFTFSSFGMHWVRQAPGKCLEWVAYISSDSSAIYYADTVKGRFTISRDNAKNSLYLQMNSLRDEDTAVYYCGRGRENIYYGSRLDYWGQGTTVTVSSASDKTHTCPPCPAPELLGGPSVFLFPPKPKDTLMISRTPEVTCVVVDVSHEDPEVKFNWYVDGVEVHNAKTKPREEQYNSTYRVVSVLTVLHQDWLNGKEYKCKVSNKALPAPIEKTISKAKGQPREPRVYTLPPCRDELTKNQVSLTCLVKGFYPSDIAVEWESNGQPENNYKTTPPVLVSDGSFTLYSKLTVDKSRWQQGNVFSCSVMHEALHNHYTQKSLSLSPG heavy: EVQLVESGGGLVKPGGSLRLSCAASGFTFSSYSMNWVRQAPGKGLEWVSSISSSSSYIYYADSVKGRFTISRDNAKNSLYLQMNSLRAEDTAVYYCARGAPIGAAAGWFDPWGQGTLVTVSSASTKGPSVFPLAPSSKSTSGGTAALGCLVKDYFPEPVTVSWNSGALTSGVHTFPAVLQSSGLYSLSSVVTVPSSSLGTQTYICNVNHKPSNTKVDKKVEPKSCDKTHTCPPCPAPELLGGPSVFLFPPKPKDTLMISRTPEVTCVVVDVSHEDPEVKFNWYVDGVEVHNAKTKPREEQYNSTYRVVSVLTVLHQDWLNGKEYKCKVSNKALPAPIEKTISKAKGQPREPQVCTLPPSRDELTENQVSLTCLVKGFYPSDIAVEWESNGQPENNYKTTPPVLDSDGSFFLYSWLTVDKSRWQQGNVFSCSVMHEALHNHYTQKSLSLSPG light: DIQMTQSPSSVSASVGDRVTITCRASQGISSWLAWYQQKPGKAPKLLIYAASSLQSGVPSRFSGSGSGTDFTLTISSLQPEDFATYYCQQGVSFPRTFGGGTKVEIKRTVAAPSVFIFPPSDEQLKSGTASVVCLLNNFYPREAKVQWKVDNALQSGNSQESVTEQDSKDSTYSLSSTLTLSKADYEKHKVYACEVTHQGLSSPVTKSFNRGEC | binds
A49MI-F3′-TriNKET-huM30 (bispecific antibody, human IgG1, kappa, also called TriNKET bearing M30 B7-H3 targeting domain; B7-H3 TriNKET) scFv: EIVLTQSPATLSLSPGERATLSCRASSRLIYMHWYQQKPGQAPRPLIYATSNLASGIPARFSGSGSGTDFTLTISSLEPEDFAVYYCQQWNSNPPTFGCGTKVEIKGGGGSGGGGSGGGGSGGGGSQVQLVQSGAEVKKPGSSVKVSCKASGYTFTNYVMHWVRQAPGQCLEWMGYINPYNDDVKYNEKFKGRVTITADESTSTAYMELSSLRSEDTAVYYCARWGYYGSPLYYFDYWGQGTLVTVSSASDKTHTCPPCPAPELLGGPSVFLFPPKPKDTLMISRTPEVTCVVVDVSHEDPEVKFNWYVDGVEVHNAKTKPREEQYNSTYRVVSVLTVLHQDWLNGKEYKCKVSNKALPAPIEKTISKAKGQPREPRVYTLPPCRDELTKNQVSLTCLVKGFYPSDIAVEWESNGQPENNYKTTPPVLVSDGSFTLYSKLTVDKSRWQQGNVFSCSVMHEALHNHYTQKSLSLSPG heavy: EVQLVESGGGLVKPGGSLRLSCAASGFTFSSYSMNWVRQAPGKGLEWVSSISSSSSYIYYADSVKGRFTISRDNAKNSLYLQMNSLRAEDTAVYYCARGAPIGAAAGWFDPWGQGTLVTVSSASTKGPSVFPLAPSSKSTSGGTAALGCLVKDYFPEPVTVSWNSGALTSGVHTFPAVLQSSGLYSLSSVVTVPSSSLGTQTYICNVNHKPSNTKVDKKVEPKSCDKTHTCPPCPAPELLGGPSVFLFPPKPKDTLMISRTPEVTCVVVDVSHEDPEVKFNWYVDGVEVHNAKTKPREEQYNSTYRVVSVLTVLHQDWLNGKEYKCKVSNKALPAPIEKTISKAKGQPREPQVCTLPPSRDELTENQVSLTCLVKGFYPSDIAVEWESNGQPENNYKTTPPVLDSDGSFFLYSWLTVDKSRWQQGNVFSCSVMHEALHNHYTQKSLSLSPG light: DIQMTQSPSSVSASVGDRVTITCRASQGISSWLAWYQQKPGKAPKLLIYAASSLQSGVPSRFSGSGSGTDFTLTISSLQPEDFATYYCQQGVSFPRTFGGGTKVEIKRTVAAPSVFIFPPSDEQLKSGTASVVCLLNNFYPREAKVQWKVDNALQSGNSQESVTEQDSKDSTYSLSSTLTLSKADYEKHKVYACEVTHQGLSSPVTKSFNRGEC | binds
huAb13v1 (AbbVie Inc.) parental monoclonal antibody (antibody, V domains shown, also called parental mAb; B7-H3 parental monoclonal antibody) VH: EVQLQESGPGLVKPSETLSLTCAVTGYSITSGYSWHWIRQFPGNGLEWMGYIHSSGSTNYNPSLKSRISISRDTSKNQFFLKLSSVTAADTAVYYCAGYDDYFEYWGQGTTVTVSS VL: DIQMTQSPSSLSASVGDRVTITCKASQNVGFNVAWYQQKPGKSPKALIYSASYRYSGVPSRFSGSGSGTDFTLTISSLQPEDFAEYFCQQYNWYPFTFGQGTKLEIK | binds
Enoblituzumab (MacroGenics, Inc.) parental monoclonal antibody (antibody, V domains shown, also called parental mAb; B7-H3 parental monoclonal antibody) VH: EVQLVESGGGLVQPGGSLRLSCAASGFTFSSFGMHWVRQAPGKGLEWVAYISSDSSAIYYADTVKGRFTISRDNAKNSLYLQMNSLRDEDTAVYYCGRGRENIYYGSRLDYWGQGTTVTVSS VL: DIQLTQSPSFLSASVGDRVTITCKASQNVDTNVAWYQQKPGKAPKALIYSASYRYSGVPSRFSGSGSGTDFTLTISSLQPEDFATYYCQQYNNYPFTFGQGTKLEIKR | binds
huM30 (Daiichi Sankyo, Inc.) parental monoclonal antibody (antibody, V domains shown, also called parental mAb; B7-H3 parental monoclonal antibody) VH: QVQLVQSGAEVKKPGSSVKVSCKASGYTFTNYVMHWVRQAPGQGLEWMGYINPYNDDVKYNEKFKGRVTITADESTSTAYMELSSLRSEDTAVYYCARWGYYGSPLYYFDYWGQGTLVTVSS VL: EIVLTQSPATLSLSPGERATLSCRASSRLIYMHWYQQKPGQAPRPLIYATSNLASGIPARFSGSGSGTDFTLTISSLEPEDFAVYYCQQWNSNPPTFGQGTKVEIK | binds
